Experimental data published in the supplement of paper PMC9112550, “Optimization of the antimicrobial peptide Bac7 by deep mutational scanning” (BMC Biology, 2022).

tested on: Escherichia coli TOP10; test: shrunken log2 fold change of peptide-encoding DNA abundance (4.5 h post-induction vs induction); higher = less antimicrobial activity (less host growth inhibition); details: time post-induction: 4.5 h; library: site-saturation at positions 5, 18, 19, 20
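Further: peptides expressed intracellularly from a pBAD plasmid library in pooled LB shake-flask culture, induced with 0.3% L-arabinose, DNA abundance read by NGS, three biological replicates, DESeq2 with apeglm shrinkage.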

Sequence	shrunken log2 fold change
RRIRSRPPRLPRPRPRPVMQPRP	0.138
RRIRERPPRLPRPRPRPQGCPRP	-0.0179
RRIRMRPPRLPRPRPRPYFQPRP	-0.759
RRIRLRPPRLPRPRPRPPKCPRP	0.213
RRIRGRPPRLPRPRPRPFSYPRP	0.0924
RRIRARPPRLPRPRPRPIICPRP	0.106
RRIRFRPPRLPRPRPRPRRYPRP	-0.0281
RRIRHRPPRLPRPRPRPRVGPRP	0.371
RRIRFRPPRLPRPRPRPGQFPRP	-0.148
RRIRGRPPRLPRPRPRPFAYPRP	0.184
RRIRMRPPRLPRPRPRPWHIPRP	-0.0015
RRIRARPPRLPRPRPRPQKNPRP	0.0395
RRIRPRPPRLPRPRPRPPSMPRP	0.29
RRIRKRPPRLPRPRPRPMIIPRP	-0.0318
RRIRARPPRLPRPRPRPDTWPRP	1.13
RRIRARPPRLPRPRPRPMCIPRP	0.143
RRIRDRPPRLPRPRPRPVRLPRP	0.28
RRIRNRPPRLPRPRPRPHNNPRP	-1.05
RRIRFRPPRLPRPRPRPPFWPRP	0.538
RRIRCRPPRLPRPRPRPMYHPRP	-0.974
RRIRDRPPRLPRPRPRPGEAPRP	1.1
RRIRKRPPRLPRPRPRPMDPPRP	0.115
RRIRTRPPRLPRPRPRPQTGPRP	-0.128
RRIRKRPPRLPRPRPRPYKHPRP	-0.347
RRIRVRPPRLPRPRPRPFCQPRP	-0.203

Sequence	shrunken log2 fold change
RRIRFRPPRLPRPRPRPQTNPRP	-0.619
RRIRTRPPRLPRPRPRPKPHPRP	0.0899
RRIRFRPPRLPRPRPRPGKIPRP	-0.024
RRIRMRPPRLPRPRPRPVFFPRP	0.207
RRIRYRPPRLPRPRPRPGWDPRP	-0.0163
RRIRTRPPRLPRPRPRPNDWPRP	-0.385
RRIRIRPPRLPRPRPRPYTIPRP	-0.605
RRIRHRPPRLPRPRPRPVQIPRP	-0.0126
RRIRARPPRLPRPRPRPQHYPRP	-0.474
RRIRLRPPRLPRPRPRPGPCPRP	0.121
RRIRPRPPRLPRPRPRPASEPRP	0.0613
RRIRERPPRLPRPRPRPESPPRP	0.0699
RRIRARPPRLPRPRPRPEPSPRP	1.22
RRIRSRPPRLPRPRPRPLDEPRP	0.189
RRIRLRPPRLPRPRPRPIIVPRP	-0.0625
RRIRDRPPRLPRPRPRPAQFPRP	0.442
RRIRSRPPRLPRPRPRPDIKPRP	-0.336
RRIRCRPPRLPRPRPRPDWWPRP	0.256
RRIRPRPPRLPRPRPRPVGWPRP	0.826
RRIRWRPPRLPRPRPRPIDDPRP	-0.152
RRIRWRPPRLPRPRPRPSNYPRP	-0.707
RRIRIRPPRLPRPRPRPPISPRP	-0.391
RRIRIRPPRLPRPRPRPSCWPRP	-0.322
RRIRYRPPRLPRPRPRPTDWPRP	-0.314
RRIRMRPPRLPRPRPRPTWTPRP	0.667

Sequence	shrunken log2 fold change
RRIRGRPPRLPRPRPRPCMLPRP	0.336
RRIRSRPPRLPRPRPRPYFMPRP	-0.848
RRIRNRPPRLPRPRPRPVDPPRP	0.0584
RRIRTRPPRLPRPRPRPQWEPRP	0.0154
RRIRYRPPRLPRPRPRPFQMPRP	-0.143
RRIRVRPPRLPRPRPRPFNCPRP	-0.0327
RRIRGRPPRLPRPRPRPTDQPRP	0.846
RRIRFRPPRLPRPRPRPRCWPRP	0.309
RRIRYRPPRLPRPRPRPAGFPRP	-0.0806
RRIRWRPPRLPRPRPRPYHTPRP	-0.816
RRIRVRPPRLPRPRPRPSTRPRP	0.552
RRIRYRPPRLPRPRPRPYSQPRP	-0.505
RRIRMRPPRLPRPRPRPISTPRP	0.166
RRIRGRPPRLPRPRPRPNEDPRP	0.468
RRIRCRPPRLPRPRPRPPTWPRP	0.0486
RRIRPRPPRLPRPRPRPYYPPRP	-0.439
RRIRNRPPRLPRPRPRPCCEPRP	0.0852
RRIRYRPPRLPRPRPRPQFEPRP	-0.106
RRIRWRPPRLPRPRPRPVIRPRP	0.0511
RRIRWRPPRLPRPRPRPNWIPRP	0.149
RRIRHRPPRLPRPRPRPLDHPRP	-0.34
RRIRCRPPRLPRPRPRPACAPRP	0.433
RRIRMRPPRLPRPRPRPCPNPRP	0.0197
RRIRSRPPRLPRPRPRPWYSPRP	-0.257
RRIRQRPPRLPRPRPRPSFMPRP	-0.509
